{"source": "patent US20230407373A1", "about": "(priority 2020, published 2023)", "molecules": {"B1": {"name": "EWSR1: host protein, UniProt Q01644 (protein, UniProt Q01844 1-656, looked up)", "RNA-binding protein EWS": "MASTDYSTYSQAAAQQGYSAYTAQPTQGYAQTTQAYGQQSYGTYGQPTDVSYTQAQTTATYGQTAYATSYGQPPTGYTTPTAPQAYSQPVQGYGTGAYDTTTATVTTTQASYAAQSAYGTQPAYPAYGQQPAATAPTRPQDGNKPTETSQPQSSTGGYNQPSLGYGQSNYSYPQVPGSYPMQPVTAPPSYPPTSYSSTQPTSYDQSSYSQQNTYGQPSSYGQQSSYGQQSSYGQQPPTSYPPQTGSYSQAPSQYSQQSSSYGQQSSFRQDHPSSMGVYGQESGGFSGPGENRSMSGPDNRGRGRGGFDRGGMSRGGRGGGRGGMGSAGERGGFNKPGGPMDEGPDLDLGPPVDPDEDSDNSAIYVQGLNDSVTLDDLADFFKQCGVVKMNKRTGQPMIHIYLDKETGKPKGDATVSYEDPPTAKAAVEWFDGKDFQGSKLKVSLARKKPPMNSMRGGLPPREGRGMPPPLRGGPGGPGGPGGPMGRMGGRGGDRGGFPPRGPRGSRGNPSGGGNVQHRAGDWQCPNPGCGNQNFAWRTECNQCKAPKPEGFLPPPFPPPGGDRGRGGPGGMRGGRGGLMDRGGPGGMFRGGRGGDRGGFRGGRGMDRGGFGGGRRGGPGGPPGPLMEQMGGRRGGRGGPGKMDKGEHRQERRDRPY"}, "B2": {"name": "RBM14: host protein, UniProt Q96PK6 (protein, UniProt Q96PK6 1-669, looked up)", "RNA-binding protein 14": "MKIFVGNVDGADTTPEELAALFAPYGTVMSCAVMKQFAFVHMRENAGALRAIEALHGHELRPGRALVVEMSRPRPLNTWKIFVGNVSAACTSQELRSLFERRGRVIECDVVKDYAFVHMEKEADAKAAIAQLNGKEVKGKRINVELSTKGQKKGPGLAVQSGDKTKKPGAGDTAFPGTGGFSATFDYQQAFGNSTGGFDGQARQPTPPFFGRDRSPLRRSPPRASYVAPLTAQPATYRAQPSVSLGAAYRAQPSASLGVGYRTQPMTAQAASYRAQPSVSLGAPYRGQLASPSSQSAAASSLGPYGGAQPSASALSSYGGQAAAASSLNSYGAQGSSLASYGNQPSSYGAQAASSYGVRAAASSYNTQGAASSLGSYGAQAASYGAQSAASSLAYGAQAASYNAQPSASYNAQSAPYAAQQAASYSSQPAAYVAQPATAAAYASQPAAYAAQATTPMAGSYGAQPVVQTQLNSYGAQASMGLSGSYGAQSAAAATGSYGAAAAYGAQPSATLAAPYRTQSSASLAASYAAQQHPQAAASYRGQPGNAYDGAGQPSAAYLSMSQGAVANANSTPPPYERTRLSPPRASYDDPYKKAVAMSKRYGSDRRLAELSDYRRLSESQLSFRRSPTKSSLDYRRLPDAHSDYARYSGSYNDYLRAAQMHSGYQRRM"}, "B3": {"name": "TIAL1: host protein, UniProt Q01085 (protein, UniProt Q01085 1-375, looked up)", "Nucleolysin TIAR": "MMEDDGQPRTLYVGNLSRDVTEVLILQLFSQIGPCKSCKMITEHTSNDPYCFVEFYEHRDAAAALAAMNGRKILGKEVKVNWATTPSSQKKDTSNHFHVFVGDLSPEITTEDIKSAFAPFGKISDARVVKDMATGKSKGYGFVSFYNKLDAENAIVHMGGQWLGGRQIRTNWATRKPPAPKSTQENNTKQLRFEDVVNQSSPKNCTVYCGGIASGLTDQLMRQTFSPFGQIMEIRVFPEKGYSFVRFSTHESAAHAIVSVNGTTIEGHVVKCYWGKESPDMTKNFQQVDYSQWGQWSQVYGNPQQYGQYMANGWQVPPYGVYGQPWNQQGFGVDQSPSAAWMGGFGAQPPQGQAPPPVIPPPNQAGYGMASYQTQ"}, "B4": {"name": "HNRNPA0 (protein, UniProt Q13151 1-305, looked up)", "Heterogeneous nuclear …": "MENSQLCKLFIGGLNVQTSESGLRGHFEAFGTLTDCVVVVNPQTKRSRCFGFVTYSNVEEADAAMAASPHAVDGNTVELKRAVSREDSARPGAHAKVKKLFVGGLKGDVAEGDLIEHFSQFGTVEKAEIIADKQSGKKRGFGFVYFQNHDAADKAAVVKFHPIQGHRVEVKKAVPKEDIYSGGGGGGSRSSRGGRGGRGRGGGRDQNGLSKGGGGGYNSYGGYGGGGGGGYNAYGGGGGGSSYGGSDYGNGFGGFGSYSQHQSSYGPMKSGGGGGGGGSSWGGRSNSGPYRGGYGGGGGYGGSSF"}, "B5": {"name": "HNRNPH1 (protein, UniProt P31943 1-449, looked up)", "Heterogeneous nuclear …": "MMLGTEGGEGFVVKVRGLPWSCSADEVQRFFSDCKIQNGAQGIRFIYTREGRPSGEAFVELESEDEVKLALKKDRETMGHRYVEVFKSNNVEMDWVLKHTGPNSPDTANDGFVRLRGLPFGCSKEEIVQFFSGLEIVPNGITLPVDFQGRSTGEAFVQFASQEIAEKALKKHKERIGHRYIEIFKSSRAEVRTHYDPPRKLMAMQRPGPYDRPGAGRGYNSIGRGAGFERMRRGAYGGGYGGYDDYNGYNDGYGFGSDRFGRDLNYCFSGMSDHRYGDGGSTFQSTTGHCVHMRGLPYRATENDIYNFFSPLNPVRVHIEIGPDGRVTGEADVEFATHEDAVAAMSKDKANMQHRYVELFLNSTAGASGGAYEHRYVELFLNSTAGASGGAYGSQMMGGMGLSNQSSYGGPASQQLSGGYGGGYGGQSSMSGYDQVLQENSSDFQSNIA"}, "B6": {"name": "RBM47: host protein, UniProt A0AV96 (protein, UniProt A0AV96 1-593, looked up)", "RNA-binding protein 47": "MTAEDSTAAMSSDSAAGSSAKVPEGVAGAPNEAALLALMERTGYSMVQENGQRKYGGPPPGWEGPHPQRGCEVFVGKIPRDVYEDELVPVFEAVGRIYELRLMMDFDGKNRGYAFVMYCHKHEAKRAVRELNNYEIRPGRLLGVCCSVDNCRLFIGGIPKMKKREEILEEIAKVTEGVLDVIVYASAADKMKNRGFAFVEYESHRAAAMARRKLMPGRIQLWGHQIAVDWAEPEIDVDEDVMETVKILYVRNLMIETTEDTIKKSFGQFNPGCVERVKKIRDYAFVHFTSREDAVHAMNNLNGTELEGSCLEVTLAKPVDKEQYSRYQKAARGGGAAEAAQQPSYVYSCDPYTLAYYGYPYNALIGPNRDYFVKAGSIRGRGRGAAGNRAPGPRGSYLGGYSAGRGIYSRYHEGKGKQQEKGYELVPNLEIPTVNPVAIKPGTVAIPAIGAQYSMFPAAPAPKMIEDGKIHTVEHMISPIAVQPDPASAAAAAAAAAAAAAAVIPTVSTPPPFQGRPITPVYTVAPNVQRIPTAGIYGASYVPFAAPATATIATLQKNAAAAAAMYGGYAGYIPQAFPAAAIQVPIPDVYQTY"}}, "data": [{"system": "HCoV-OC43 gRNA and sgRNA", "format": "binding", "conditions": "36 hpi; type n_36_v; tested against no-probe control; FDR<10%", "values": [{"molecule": "B1", "target (unweighted spectral count, OC43 Probe II capture)": 9}, {"molecule": "B2", "target (unweighted spectral count, OC43 Probe II capture)": 14}, {"molecule": "B3", "target (unweighted spectral count, OC43 Probe II capture)": 9}, {"molecule": "B4", "target (unweighted spectral count, OC43 Probe II capture)": 12}, {"molecule": "B5", "target (unweighted spectral count, OC43 Probe II capture)": 36}, {"molecule": "B6", "target (unweighted spectral count, OC43 Probe II capture)": 31}]}, {"system": "HCoV-OC43 gRNA and sgRNA", "format": "binding", "conditions": "OC43 Probe II, 12 hpi (type n_12_v), infected cells; tested against no-probe control", "values": [{"molecule": "B2", "target (unweighted spectral count)": 5}, {"molecule": "B5", "target (unweighted spectral count)": 15}, {"molecule": "B6", "target (unweighted spectral count)": 10}]}, {"system": "HCoV-OC43 gRNA and sgRNA", "format": "binding", "conditions": "OC43 Probe II, 24 hpi (type n_24_v), infected cells; tested against no-probe control", "values": [{"molecule": "B1", "target (unweighted spectral count)": 6}, {"molecule": "B3", "target (unweighted spectral count)": 7}]}, {"system": "HCoV-OC43 gRNA and sgRNA", "format": "binding", "conditions": "type n_48_v; 48 hpi; OC43 Probe II capture on infected cells", "values": [{"molecule": "B1", "target (unweighted spectral count, OC43 Probe II)": 10}, {"molecule": "B2", "target (unweighted spectral count, OC43 Probe II)": 17}, {"molecule": "B3", "target (unweighted spectral count, OC43 Probe II)": 11}, {"molecule": "B4", "target (unweighted spectral count, OC43 Probe II)": 13}, {"molecule": "B5", "target (unweighted spectral count, OC43 Probe II)": 53}, {"molecule": "B6", "target (unweighted spectral count, OC43 Probe II)": 27}]}, {"system": "HCoV-OC43 gRNA and sgRNA", "format": "binding", "conditions": "type n_48_v; 48 hpi; no-probe control on infected cells", "values": [{"molecule": "B1", "background (unweighted spectral count, no-probe control)": 1}, {"molecule": "B2", "background (unweighted spectral count, no-probe control)": 2}, {"molecule": "B3", "background (unweighted spectral count, no-probe control)": 1}, {"molecule": "B4", "background (unweighted spectral count, no-probe control)": 2}, {"molecule": "B5", "background (unweighted spectral count, no-probe control)": 6}, {"molecule": "B6", "background (unweighted spectral count, no-probe control)": 2}]}, {"system": "HCoV-OC43 gRNA and sgRNA", "format": "binding", "conditions": "type s_36_m; HCoV-OC43-infected HCT-8 cells, 36 hpi, Probe II", "values": [{"molecule": "B1", "target (spectral count)": 9}, {"molecule": "B3", "target (spectral count)": 9}, {"molecule": "B6", "target (spectral count)": 31}]}, {"system": "HCoV-OC43 gRNA and sgRNA", "format": "binding", "conditions": "type s_36_m; uninfected-probe control, 36 hpi, Probe II", "values": [{"molecule": "B1", "background (spectral count)": 1}, {"molecule": "B3", "background (spectral count)": 1}, {"molecule": "B6", "background (spectral count)": 6}]}, {"system": "gRNA of HCoV-OC43", "format": "binding", "conditions": "type g_36_m; HCoV-OC43-infected HCT-8 cells, 36 hpi, Probe I", "values": [{"molecule": "B2", "target (spectral count)": 20}, {"molecule": "B6", "target (spectral count)": 28}]}, {"system": "gRNA of HCoV-OC43", "format": "binding", "conditions": "type g_36_m; uninfected-probe control, 36 hpi, Probe I", "values": [{"molecule": "B2", "background (spectral count)": 2}, {"molecule": "B6", "background (spectral count)": 5}]}, {"system": "gRNA of HCoV-OC43", "format": "binding", "conditions": "type n_48_v: 48 hours post-infection, infected cells, OC43 Probe I; unweighted spectral count", "values": [{"molecule": "B1", "target (spectral count, OC43 Probe I RNP capture)": 8}, {"molecule": "B2", "target (spectral count, OC43 Probe I RNP capture)": 19}, {"molecule": "B3", "target (spectral count, OC43 Probe I RNP capture)": 11}, {"molecule": "B4", "target (spectral count, OC43 Probe I RNP capture)": 12}, {"molecule": "B5", "target (spectral count, OC43 Probe I RNP capture)": 49}, {"molecule": "B6", "target (spectral count, OC43 Probe I RNP capture)": 26}]}, {"system": "gRNA of HCoV-OC43", "format": "binding", "conditions": "type n_48_v: 48 hours post-infection, no-probe control on infected cells", "values": [{"molecule": "B1", "background (spectral count, no-probe control)": 1}, {"molecule": "B2", "background (spectral count, no-probe control)": 2}, {"molecule": "B3", "background (spectral count, no-probe control)": 1}, {"molecule": "B4", "background (spectral count, no-probe control)": 2}, {"molecule": "B5", "background (spectral count, no-probe control)": 6}, {"molecule": "B6", "background (spectral count, no-probe control)": 2}]}, {"system": "SARS-CoV-2 gRNA and sgRNAs", "format": "binding", "conditions": "Probe II capture; […]; LC-MS/MS LFQ", "values": [{"molecule": "B1", "target (unweighted spectral count in RNP capture)": 7}, {"molecule": "B2", "target (unweighted spectral count in RNP capture)": 10}, {"molecule": "B3", "target (unweighted spectral count in RNP capture)": 25}, {"molecule": "B4", "target (unweighted spectral count in RNP capture)": 9}, {"molecule": "B5", "target (unweighted spectral count in RNP capture)": 61}]}, {"system": "SARS-CoV-2 gRNA and sgRNAs", "format": "binding", "conditions": "no-probe control pull-down, used as background for Probe II", "values": [{"molecule": "B1", "background (unweighted spectral count in control)": 1}, {"molecule": "B2", "background (unweighted spectral count in control)": 1}, {"molecule": "B3", "background (unweighted spectral count in control)": 1}, {"molecule": "B4", "background (unweighted spectral count in control)": 1}, {"molecule": "B5", "background (unweighted spectral count in control)": 1}, {"molecule": "B6", "background (unweighted spectral count in control)": 1}]}, {"system": "SARS-CoV-2 gRNA", "format": "binding", "conditions": "[…]; LC-MS/MS; Probe I sample (first 199 lines of Table 2)", "values": [{"molecule": "B1", "target (unweighted spectral count of the protein in the RNP capture)": 9}, {"molecule": "B2", "target (unweighted spectral count of the protein in the RNP capture)": 9}, {"molecule": "B3", "target (unweighted spectral count of the protein in the RNP capture)": 10}, {"molecule": "B4", "target (unweighted spectral count of the protein in the RNP capture)": 12}, {"molecule": "B5", "target (unweighted spectral count of the protein in the RNP capture)": 78}, {"molecule": "B6", "target (unweighted spectral count of the protein in the RNP capture)": 12}]}]}
